Results from patent US20240360227A1.
Positions count from the first letter of the chain named. One block for each binder: values may come before it.

How the values were obtained:
[1] = target: Recombinant human his-tagged IGF R extracellular domain protein (human) (UniProt P08069); test: SPR, Ab captured via anti-huIgG Fc, pH 7.4
[2] = target: Recombinant human his-tagged IGF R extracellular domain protein (human) (UniProt P08069); test: SPR, Ab captured via anti-huIgG Fc, dissociation at pH 6

B1: VRDN-02100 (antibody, human IgG1, kappa, V domains shown)
VH: QVQLQESGPGLVKPSETLSLTCTVSGYSITGGYLWNWIRQPPGKGLEWIGYISYDGTNNYKPSLKDRVTISRDTSKNQFSLKLSSVTAADTAVYYCARYGRVFFDYWGQGTLVTVSS
VL: DIVMTQSPLSLPVTPGEPASISCRSSQSIVHSNGNTYLQWYLQKPGQSPQLLIYKVSNRLYGVPDRFSGSGSGTDFTLKISRVEAEDVGVYYCFQGSHVPWTFGQGTKVEIKR
Kd [1]: 0.456 nM | koff [1]: 4.85e-05 s⁻¹ | kon [1]: 106000 M⁻¹ s⁻¹ | Kd [2]: 1.05 nM | koff [2]: 9.16e-05 s⁻¹ | kon [2]: 86800 M⁻¹ s⁻¹

B4: VRDN-02031 (antibody, V domains shown)
VH: B1 VH
VL: DIVMTQSPLSLPVTPGEPASISCRSHQSIVHSNGNTYLQWYLQKPGQSPQLLIYKVSNRLYGVPDRFSGSGSGTDFTLKISRVEAEDVGVYYCFQGSHVPWTFGQGTKVEIK
Kd [1]: 0.468 nM | koff [1]: 4.56e-05 s⁻¹ | kon [1]: 97300 M⁻¹ s⁻¹ | Kd [2]: 1.22 nM | koff [2]: 0.000115 s⁻¹ | kon [2]: 94400 M⁻¹ s⁻¹

B5: VRDN-02026 (antibody, V domains shown)
VH: B1 VH with F104H
VL: B4 VL with H26S
Kd [1]: 2.4 nM | koff [1]: 9.99e-05 s⁻¹ | kon [1]: 41500 M⁻¹ s⁻¹ | Kd [2]: 1.64 nM | koff [2]: 6.71e-05 s⁻¹ | kon [2]: 40800 M⁻¹ s⁻¹

B7: VRDN-02018 (antibody, V domains shown)
VH: B1 VH with T57H
VL: B4 VL with H26S
Kd [1]: 0.734 nM | koff [1]: 7.79e-05 s⁻¹ | kon [1]: 106000 M⁻¹ s⁻¹ | Kd [2]: 1.26 nM | koff [2]: 0.000108 s⁻¹ | kon [2]: 85400 M⁻¹ s⁻¹

B8: VRDN-02002 (antibody, V domains shown)
VH: B1 VH with Y27H
VL: B4 VL with H26S
Kd [1]: 0.992 nM | koff [1]: 0.000104 s⁻¹ | kon [1]: 105000 M⁻¹ s⁻¹ | Kd [2]: 1.11 nM | koff [2]: 9.22e-05 s⁻¹ | kon [2]: 83000 M⁻¹ s⁻¹

B11: VRDN-02017 (antibody, V domains shown)
VH: B1 VH with G56H
VL: B4 VL with H26S
Kd [1]: 1.22 nM | koff [1]: 0.000118 s⁻¹ | kon [1]: 97000 M⁻¹ s⁻¹ | Kd [2]: 1.14 nM | koff [2]: 0.00011 s⁻¹ | kon [2]: 96000 M⁻¹ s⁻¹

B12: VRDN-02024 (antibody, V domains shown)
VH: B1 VH with V102H
VL: B4 VL with H26S
Kd [1]: 0.449 nM | koff [1]: 5.06e-05 s⁻¹ | kon [1]: 113000 M⁻¹ s⁻¹ | Kd [2]: 0.793 nM | koff [2]: 7.99e-05 s⁻¹ | kon [2]: 101000 M⁻¹ s⁻¹

B14: VRDN-02027 (antibody, V domains shown)
VH: B1 VH with D105H
VL: B4 VL with H26S
Kd [1]: 6.73 nM | koff [1]: 0.000957 s⁻¹ | kon [1]: 142000 M⁻¹ s⁻¹ | Kd [2]: 2.85 nM | koff [2]: 0.000121 s⁻¹ | kon [2]: 42600 M⁻¹ s⁻¹

B15: VRDN-02019 (antibody, V domains shown)
VH: B1 VH with N58H
VL: B4 VL with H26S
Kd [1]: 0.549 nM | koff [1]: 5.53e-05 s⁻¹ | kon [1]: 101000 M⁻¹ s⁻¹ | Kd [2]: 1.18 nM | koff [2]: 0.000101 s⁻¹ | kon [2]: 85800 M⁻¹ s⁻¹

B16: VRDN-02028 (antibody, V domains shown)
VH: B1 VH with Y106H
VL: B4 VL with H26S
Kd [1]: 0.525 nM | koff [1]: 5.4e-05 s⁻¹ | kon [1]: 103000 M⁻¹ s⁻¹ | Kd [2]: 1.11 nM | koff [2]: 0.000107 s⁻¹ | kon [2]: 97000 M⁻¹ s⁻¹

B17: VRDN-02021 (antibody, V domains shown)
VH: B1 VH with Y99H
VL: B4 VL with H26S
Kd [1]: 0.868 nM | koff [1]: 5.84e-05 s⁻¹ | kon [1]: 67300 M⁻¹ s⁻¹ | Kd [2]: 1.38 nM | koff [2]: 0.000137 s⁻¹ | kon [2]: 99200 M⁻¹ s⁻¹

B21: VRDN-02001 (antibody, V domains shown)
VH: B1 VH with G26H
VL: B4 VL with H26S
Kd [1]: 0.495 nM | koff [1]: 5.1e-05 s⁻¹ | kon [1]: 103000 M⁻¹ s⁻¹ | Kd [2]: 1.2 nM | koff [2]: 0.000115 s⁻¹ | kon [2]: 96000 M⁻¹ s⁻¹

Now from value to binder:

Kd [1]: 0.544 nM | koff [1]: 5.16e-05 s⁻¹ | kon [1]: 94800 M⁻¹ s⁻¹ | Kd [2]: 1.03 nM | koff [2]: 9.56e-05 s⁻¹ | kon [2]: 93200 M⁻¹ s⁻¹
B2: VRDN-02020 (antibody, V domains shown)
VH: B1 VH with N59H
VL: B4 VL with H26S

Kd [1]: 0.599 nM | koff [1]: 5.53e-05 s⁻¹ | kon [1]: 92400 M⁻¹ s⁻¹ | Kd [2]: 1.1 nM | koff [2]: 9.38e-05 s⁻¹ | kon [2]: 85600 M⁻¹ s⁻¹
B3: VRDN-02029 (antibody, V domains shown)
VH: B1 VH
VL: B4 VL with R24H, H26S

Kd [1]: 8.23 nM | koff [1]: 0.000775 s⁻¹ | kon [1]: 94100 M⁻¹ s⁻¹
B6: VRDN-02022 (antibody, V domains shown)
VH: B1 VH with G100H
VL: B4 VL with H26S

Kd [1]: 0.646 nM | koff [1]: 5.48e-05 s⁻¹ | kon [1]: 84800 M⁻¹ s⁻¹ | Kd [2]: 1.09 nM | koff [2]: 9.65e-05 s⁻¹ | kon [2]: 88900 M⁻¹ s⁻¹
B9: VRDN-02030 (antibody, V domains shown)
VH: B1 VH
VL: B4 VL with S25H, H26S

Kd [1]: 0.346 nM | koff [1]: 3.39e-05 s⁻¹ | kon [1]: 98000 M⁻¹ s⁻¹ | Kd [2]: 1.31 nM | koff [2]: 0.000111 s⁻¹ | kon [2]: 84300 M⁻¹ s⁻¹
B10: VRDN-02016 (antibody, V domains shown)
VH: B1 VH with D55H
VL: B4 VL with H26S

Kd [2]: 0.228 nM | koff [2]: 4.43e-05 s⁻¹ | kon [2]: 194000 M⁻¹ s⁻¹
B13: VRDN-02059 (antibody, V domains shown)
VH: B1 VH with S53H
VL: B4 VL

Kd [1]: 4.4 nM | koff [1]: 0.00187 s⁻¹ | kon [1]: 426000 M⁻¹ s⁻¹ | Kd [2]: 1.23 nM | koff [2]: 8.97e-05 s⁻¹ | kon [2]: 72700 M⁻¹ s⁻¹
B18: VRDN-02023 (antibody, V domains shown)
VH: B1 VH with R101H
VL: B4 VL with H26S

Kd [1]: 2.08 nM | koff [1]: 0.000141 s⁻¹ | kon [1]: 68000 M⁻¹ s⁻¹ | Kd [2]: 1.51 nM | koff [2]: 9.5e-05 s⁻¹ | kon [2]: 63000 M⁻¹ s⁻¹
B19: VRDN-02025 (antibody, V domains shown)
VH: B1 VH with F103H
VL: B4 VL with H26S

Kd [1]: 0.423 nM | koff [1]: 4.72e-05 s⁻¹ | kon [1]: 112000 M⁻¹ s⁻¹ | Kd [2]: 1 nM | koff [2]: 9.44e-05 s⁻¹ | kon [2]: 94300 M⁻¹ s⁻¹
B20: VRDN-02003 (antibody, V domains shown)
VH: B1 VH with S28H
VL: B4 VL with H26S
